This is an account of results in WO2008140316A1.

The target of the experiment is human CD40 receptor on monocytes (human) (UniProt P25942). The experiment in a line: cell-based or functional assay.
UniProt P25942, sequence (P25942 21-277): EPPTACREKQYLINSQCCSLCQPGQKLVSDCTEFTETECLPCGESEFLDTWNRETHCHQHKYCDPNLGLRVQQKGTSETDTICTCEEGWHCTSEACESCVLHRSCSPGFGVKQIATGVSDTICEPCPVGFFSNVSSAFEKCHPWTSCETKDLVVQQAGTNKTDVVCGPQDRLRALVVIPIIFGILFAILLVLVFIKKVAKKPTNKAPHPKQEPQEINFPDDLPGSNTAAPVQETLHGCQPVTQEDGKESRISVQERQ

For the substance “clone 64 (agonist anti-human CD40 monoclonal antibody, PanGenetics, The Netherlands)”, the IL-1β (pg/mL), Clone 64+IFN-γ, MDS CD14+ cells (Table 3) amounted to 18 pg/mL; the IL-1β (pg/mL), Clone 64+IFN-γ, donor CD14+ cells (Table 3) was determined as 13 pg/mL; the IL-6 (pg/mL), Clone 64+IFN-γ, MDS CD14+ cells (Table 3) is 1210 pg/mL; the IL-6 (pg/mL), Clone 64+IFN-γ, donor CD14+ cells (Table 3) amounted to 1490 pg/mL. This substance also gave an IL-10 (pg/mL), Clone 64+IFN-γ, MDS CD14+ cells (Table 3) of 1650 pg/mL; an IL-10 (pg/mL), Clone 64+IFN-γ, donor CD14+ cells (Table 3) of 1170 pg/mL; a TNF-α (pg/mL), Clone 64+IFN-γ, MDS CD14+ cells (Table 3) of 293 pg/mL; a TNF-α (pg/mL), Clone 64+IFN-γ, donor CD14+ cells (Table 3) of 52 pg/mL. Further, the TNF-α production by CD14+ monocytes from MDS patients, clone 64 + IFN-γ, 24 h, ELISA came to 449 pg/mL and the TNF-α production by CD14+ monocytes from normal controls, clone 64 + IFN-γ, 24 h, ELISA was 67 pg/mL.
